# The DeepSol protein solubility set
# Assay: soluble on expression in E. coli; label from the status in PepcDB or PDB records
row,Sequence,soluble on expression in E. coli
1,MQKELFRQSPDSNKLILFFNGWAMTREAVSHLAIPPEYDLLHVWDYRTDTLHFDWSPYREICLSAWSMGVWAAERLSREGRLPSVVSAVAICGTGYPMDDTMGIPLDIFRGTLDGLTEENRLRFNRRMCGGKSLKHLLEALAARETDEIKAELGRVYEEEEKRLKSDDPHPVAPLSWDKALIGAKDRIIPAKNQQAFWQMRGCRNIETVAEGDHYLFNRFTEWEQLWS,not soluble
2,MQKLINSVQNYAWGSKTALTELYGIANPQQQPMAELWMGAHPKSSSRITTANGETVSLRDAIEKNKTAMLGEAVANRFGELPFLFKVLCAAQPLSIQVHPNKRNSEIGFAKENAAGIPMDAAERNYKDPNHKPELVFALTPFLAMNAFREFSDIVSLLQPVAGAHSAIAHFLQVPNAERLSQLFASLLNMQGEEKSRALAVLKAALNSQQGEPWQTIRVISEYYPDDSGLFSPLLLNVVKLNPGEAMFLFAETPHAYLQGVALEVMANSDNVLRAGLTPKYIDIPELVANVKFEPKPAGELLTAPVKSGAELDFPIPVDDFAFSLHDLALQETSIGQHSAAILFCVEGEAVLRKDEQRLVLKPGESAFIGADESPVNASGTGRLARVYNKL,not soluble
3,MQKSSLISHRFSFCKVCGGKANGNHFGIQSCRACAAFFRRAANSKWSSMKCTTFGCADMLVPCKPCRLKRCQEQGMSTTNFQFDRDALKRLLVPKSVEKFVGRPESVIFCDMTESTSKTFIDIRPLIEKTSNILKNGAEGPIFGRNQLQKLANGFENYTNEISVKMIKKIGKSETADCWEYYITTTAKWLNYFNGFKLLSHELQVGKYVFFIEIFSK,not soluble
4,MQLEYPLTNHMKGNIVLTQEKTAIAYYRVRSETVMLTDVEKKLKTKRKVARALNRLKANDGFEINLLPVNADIRGKMGAMRSLIDSNNYEVGVDKLMKTAMVLEQEMGMVYEYTWIIGVPLIKKDLAVDLKETVTNSISNVSEKFVKGLGFDVELAEYWEKDYREQELEVYQNLSELLIERLTEDELYYYQAYQFLKNIPHERQDVLSSQNLDNLMATKIKPLFGGGLHLNCDYGESYISYLPMGDVGVFLDGNHFLEVVQKMPFPVEVKIQATFAESKGQLALSGRSSRARTRTKNIMQEAHLAGSKQKRKIVEGQLSLDDLDQKIDDGVDIIDWKAVIVVSGSTKKQMRARKKYLINRFDSLDIPLIKATFDNPYLFQSTLFGNFLRMQTSRWQHTSTIESFAELNFFTSLHAGTKLGFYLGRVDTTLEEKEDRKSIISSSKNLIFMNMLLANKEGVDGKKTNNPHWALTGDTGNGKSVTAKTLFMQMALLKDRVLYIDPKKEMRKQFMYTINDPEYQKKYPLDVDFVKSFNFVTLDVRDTKNHGVLDPIVLFDETEAIATTKAMLTNIYEGTWNLKQKTEINEAIAKVVLERKEGKKVGFWHVIERLVESEISDVKDMGRFILSTVKGSVLELAFSHGDVEGLSFDKKVTILEIEDLDLPTDKNENLDENKRLSVTLMFALGTFCSKFGSRNPKEETVTFFDESWIFQSSPEGKAILKSMKRIGRSFNNFLVLITQSTNDLDDSEDGTGFGTVICFDEVQNREGVLKYLNLPVNEINMKWVSNMVQGQCLMKDMFGQTNRIVVHVIFEEWLELFKTVDDTEASKMENRFVA,not soluble
5,MQLHEQIANISVTFNDIPRSDHSMTPTELCYFDDFATTLVVDSVLNFTTHKMSKKRRYLYQDEYRTARTVMKTFREQRDWTNAIYGLLTLRSVSHFLSKLPPNKLFEFRDHIVRFLNMFILDSGYTIQECKRYSQEGHQGAKLVSTGVWSRGDKIERLSGVVCLLSSEDEDSILAQEGSDFSVMYSTRKRCSTLWLGPGAYINHDCRPTCEFVSHGSTAHIRVLRDMVPGDEITCFYGSEFFGPNNIDCECCTCEKNMNGAFSYLRGNENAEPIISEKKTKYELRSRS,not soluble
6,MQLISDRTSGAIHEIFGRDKALIGMIHCPPFPGAPRYRGETMDTIVDACLRDAERLVAGGLHGLVVENHGDIPFSKPDDIGPETAACLGVVTDRIRRAFGVPLGINVLANAPLPALAAAVAGGALFIRVNQWANAYVANEGFMEGRAAEAMRYRSLLRAEHVRIFADSHVKHGSHAIVADRSIPELTRDLAFFDADCIIATGQRTGDSATIAEIEEIGGATHLPLLVGSGVTEANVVEILKRTNGVIVASSLKEGGVWWNPVDPERVARFVAAAREGLDGLEHHHHHH,not soluble
7,MQLPLSYWIESTQFPTFPRLSENIKTKVAIIGAGITGITTAYLLAKEGIDVVLIDSGRILNGTTGHTTAKVTAQHDLIYDELINHFGVEKARLYYESNNQALQFINKTVQTYKIDCNFSNEDSYLYTTTDNGLRNLSKEYEAYQKLNIPCDYVQSLSIPIPVQSALVMKNQAQFHPLLYLKTLLEKFVEMGGKVYEQTTAMDVEKGDYSQIITKEGHHITCEYVVSCSHFPFYDANSFFFTRMYAERSYALAIKAKTEYPGGMYLSIDDPKRSLRYITNNGEKLILIGGESHKTGQGINTMLHYEALYSFAEATFGIDEVSYRWSAQDLITLDKLPYIGHINERNPNIFVATGYRKWGMTTGTAAAHLLKDSILKVHSPYKELYAPSRFHANPDIKTFLSQNIDVAKHLIAGLEHHHHHH,not soluble
8,MQLRGEVTPHIGRHAFAVLAILKGMLLETLQKVFGHKSITYVLRIHSLVRRRRSNLFLEVAHLYDQRADQLSQLLIRACFNNCQFHTKILFKILNMRQSNAHPISFPNR,not soluble
9,MQLTAKASLTNALLISICTPDFKGDEATESLAELARLVTTLGFKVVGTQSQKQSSTKKVNVLGLGKLAEIAHLTGNQGEVEDMEEVEDLSVGEQTDDVEFMVNSSDIPSDNLPFACADVVVFDCDLSPSQLRNVENQLGVEVFDRTGIIIEIFSRHARTKTAKLQVEIARLNYVAPRLRETSCGDKERQMGKGAGETTLELNRRAVRDQLAELKRELVSVQHEMKGRRTQRSELFCVALVGYTNAGKSSMMRAITGSDVEGENKLFATLDTTVRALFPITQPRILVSDTVGFIKKLPHDLVASFHSTLAEAQDASLLLYVVDASDPSFRAQLDVVHEVLDEVGVEDSKKLLVLNKSDQLSIEQQQALMEEFPNAMMTSARNPADVSKLHKYIVGIAQEEMIEEEIIVPYTANGIIGEIRSRMSVTKEEYENSHIKLTVRSNAIDLARLKKRMLSLLEHHHHHH,not soluble
10,MQLYYLGPKGTFSYLACRQYFSEKETTFQPKSNLFEVIKAVADDDTSIGVVPIENSIEGTINIVADALAQQDVFAHGEIRLDINFALYGNGTDSISDIKKVYSIAPAISQTTNYIHQHQFDYDYVDSTIQSLTKIENGVAAIAPLGSGEAYGFTPIDTHIEDYPHNVTRFLVIKNQQQFDQNATSLMFLITPMHDKPGLLASVLNTFALFNINLSWIESRPLKTQLGMYRFFVQADSAITTDIKKVIAILETLDFKVEMIGAFNLEHHHHHH,not soluble
11,MQPASAKWYDRRDYVFIEFCVEDSKDVNVNFEKSKLTFSCLGGSDNFKHLNEIDLFHCIDPNDSKHKRTDRSILCCLRKGESGQSWPRLTKERAKLNWLSVDFNNWKDWEDDSDEDMSNFDRFSEMMNNMGGDEDVDLPEVDGADDDSQDSDDEKMPDLE,not soluble
12,MQQFATLSLASLLMLGTFTAFAAENGDAPASGWHIDDSATKGASGQQGMFDGVRLTEQQRQQMRDLMHQSRQDKPAFNTEDVKAMHKLVTAETFDEAAVRAQITRMMSVQIERQIQMTRVRNQMYNLLTPAQKEILELKHKQRMKEMQQQISMFNQMVAPSSGTTNHTETDSPELEHHHHHH,soluble
13,MQQIFFKDPILGEVLFDQQTKWMYELVETEAFRRLRNIKQLGINFHFYPGGVHTRYSHSLGVYELLRRILNTPAFAPIDENKKQTVLVAGLLHDIGHAPHSHAFEIYFAKAPNFKKELFIHEEVTTLFVNSEPIKSILKANQIDPKLVAALIDENKELKPSNYWMRQLISSDLDADRMDYLLRDSYFTGTSHSLIDYQTIIKEMDCVKVKGIYEIFFKDKCLPLIENFLITRHHMYQSIYSDGRSISTELNLWFVFQRIKDLVDKNQFDFNGYKTLEQVCLPLLKNEHFDKKMLPAFVKLDDYVFQSFFVNLYQTTKDKILKKLLDSYLNSLKFEIKFYETKEQRDLDFEKQASKYKDAKYFITKFNNQFKGFYEGWSSHKNELKIKTMQNKHTNLSEISMLVKRSNELFFENALYKWANVFYRL,soluble
14,MQQLLISILEDLNNTSTDIIASAVISTDGLPMATMLPSHLNSDRVGAISATLLALGSRSVQELACGELEQVMIKGKSGYILLSQAGKDAVLVLVAKETGRLGLILLDAKRAARHIAEAI,not soluble
15,MQQNKCPDCEVELEWTGQYHCGQCESDFKKVGFCPDCGAELEKLQACGAANYFCNTCNELKSKSRVRFEFQKISLEHHHHHH,soluble
16,MQRLFRQKMIINSLGTSPTSVDTLVELTGASPATIRRDLTDLEGHGQLRKVHGGAVAVNLRGTPMPYSLRSAENAESKTAIAQLVSRLVTDDMSVIIDNGSTMVAVAQALQERPITALCLSLRAALPLGEGGVATVSTPDGTLMPESLRYAAASCLRALGEFRADVAIVGTCSASPAMGLTVTTHQDAQVKRAILASSARVVLAATGDKLSRTSSFRFGDIEDIDDLVTTRDAPQVTLDAFRVAGSRVYVADLEHHHHHH,soluble
17,MQRNLSHIISQATSAPLLLEPAYARVFFCALGRESGINSLHIPGNNESLDQSDMALVTGDFMATGKPQARFYQVVNGIAVLPVTGTLVHKLGGMRPFSGMTGYDGVTARLQQAVSDPEVKGILLDIDSPGGQAAGAFDCADMIYRMREQKPVWALANETACSAAMLLAAACSHRLVTQTSRMGSIGVVMAHTSYAEKLKQEGIDITLIYSGAHKADLTPSQKLPESVYADYQQRMDEARKMFAEKVARYTGLSVDAVMATEAAVYDGQAIITTGLADGMVNAADAIGVMAEAINSNKTGGTMPELSAADAVTQENQRVMGILGCPEARGHEALAQMLAGQPGMSVAQAKSILAAAAPADTTSTADRILALEEAGGRETLAQTLAAMPEMTVEQARTILAASPIAAATSLHDAVMALDEAKGREELAEKLAVMPGMTTDQARDLLAAAPDKSGNAGLSMNNAFDAFMQSHSPGPISGGKGHSNDTETTLLMSIPGTSATLEHHHHHH,not soluble
18,MQSHTFTRSRGVPIYMNGSVSHQRLYDRLSEPSTSRQLPRSISLAPTGHHRTGSTRIDREQVDTSLPVTYIPRFHDESAVRRMNYRQIPGTDIRMSKIGFGAAAIGGMFGNVEDSIIKIVETAIKQGINYIDTGYWYSQSRSESILGKALSKIPRKAYYISTKVGRFELDYARTFDFRADKILESLTNSLKRLQLTYIDICYVQIHDADFAPNESIVLYETLQALEMAKSSGKIRHIGLTGYPLGKLVYSFRYVWNAPKLYFSVNLSITRNIAVINSGALCWGLLTEKGPPPWHPASDEIKEACLAATTYCSSKNISISKLALDYALNFPNVICCLVGMDSVQQVLDNLELSNFSRITDVEQRVRDRIMRRYLDRLENAGWEGVDVAQYWKKLKKLGLTALATHRHSSVESLASTLNGFSLYSSNSSSELRTPRRRRPF,not soluble
19,MQTISDNAANAIQEIFGRSKALIGMIHCPAFPGAPRYRNASMDAIYDACMRDAERLIEGGMHGLIVENHGDVPFSKPDDIGPETSAFMSVVTDRIVRTAGVPVGINVLANAPIPAFAIAKAGGAKFIRVNQWANAYVANEGFMEGRAAEAMRYRSLLRAEHIKVFADSHVKHGAHAITADRSIDELTRDLAFFDADGVIATGQRTGNSASLEEIEEIGAATHLPLLVGSGVNEGNIVEILKRTSGVIVASSLKEGGVWWNPVELARVRSFVAAARPGLEALEHHHHHH,soluble
